B1: Hairpin Ribozyme (parent)
chain: GUCCUCUUUCACGUGCGCGUGAAAGAGAGAAGUGAACCAGAGAAACACACGUUGUGGUAUAUUACCUGGUA

Variants of: B1
Test: self-cleavage, relative activity (ratio to wild type); higher = more cleavage; co-transcriptional

Variant	self-cleavage
C4G A22C	0.206
C4G A49G	0.101
C4G A49U	0.183
C4U U9C	0.22
C4G G54A	0.144
C4G G54C	0.139
C4U G13A	0.238
U5C G42A	0.133
C4U G68A	0.18
C4U G68C	0.0882
U5A U33G	0.131
C4U A31U	0.104
C4U A31C	0.193
U5A U55G	0.147
U5A U55A	0.163
C4G C18U	0.284
C4G C48U	0.146
C4A C16A	0.202
C4G U62G	0.114
C4G U62C	0.148
U5A C37U	0.291
U5A C37A	0.0853
C4U C37U	0.243
C4U C12A	0.333

Variant	self-cleavage
U5G A31C	0.091
U5G A31G	0.17
C4U A41U	0.71
C4U A41C	0.469
C4U U53C	0.398
C4U U58G	0.218
C4U G51U	0.194
C4U G51A	0.533
U5C G25U	0.28
U5C G25C	0.202
U5G A28G	0.669
U5A C48U	0.104
U5C C65U	0.24
U5C C48A	0.122
U5A C12U	0.314
C4U A28C	0.273
C4A U53G	0.27
U5A G13A	0.139
U5A U58C	0.615
U5A U58A	0.387
C4U G34A	0.688
U5C C38U	0.298
U5A G25U	0.279
C4A G42U	0.115

Variant	self-cleavage
U5A U20C	0.358
U5A U20G	0.566
U5A C66A	0.247
C4U G19U	0.312
U5C A26G	1.26
U5A A36C	0.168
C4U C18G	0.349
C4U C18U	0.514
U5A G57C	0.231
U5A G57A	0.154
C4A A71U	0.138
C4U C65G	0.0877
C4U C65A	0.374
C4A A43U	0.184
C4U G40A	0.147
U5C C46G	0.0996
U5A U63G	0.264
C4A G34U	1.01
C4A C38G	0.175
C4A C38A	0.104
C4A G68U	0.111
C4G U8A	0.0905
U5G A11G	0.335
U5G A11U	0.0986

Variant	self-cleavage
C4A C48A	0.131
U5A G21U	0.322
C4A A39U	0.0907
U5A A41C	0.554
U5C A44U	0.0797
U5A A22U	0.274
C4U U67G	0.143
C4U U67C	0.128
C4G A28U	0.0783
C4G A28G	0.443
U5A A59G	0.213
C4A G17U	0.148
U5C C18U	0.613
C4A U52A	0.206
C4G A39C	0.193
C4G A39G	0.0945
C4A C65A	0.148
C4G G25A	0.156
C4A G21A	0.165
U5C G21C	0.6
U5C G21U	0.593
U5C G21A	0.62
C4G G27A	0.325
U5C G40U	0.19

Variant	self-cleavage
U5C G40A	0.321
U5C G40C	0.0912
C4A G25C	0.153
C4G U14G	0.265
C4G U14A	0.231
U5A G32U	0.153
U5A G32C	0.0597
C4U A23C	0.3
C4G U67G	0.182
C4G C10U	0.198
C4U U20C	0.24
C4U U20A	0.281
U5G A39U	0.11
U5G A39C	0.129
C4A G13U	0.248
C4G A45C	0.0824
C4A C46G	0.165
C4A C46U	0.17
U5C G13C	0.47
U5A A30C	0.0813
C4A U58A	0.113
C4A U58G	0.183
C4G G57A	0.103
C4G C38U	0.129

Variant	self-cleavage
U5G A43G	0
C4G U70A	0.161
C4G U70G	0.219
U5C A64G	0.587
U5C A64C	0.19
U5C A64U	0.0907
U5C G68C	0.159
U5A G40A	0.17
C4U A44U	0.162
U5A A49G	0.103
U5C A28C	0.139
C4G G29U	0.13
U5C U53G	0.448
U5G A30C	0.0771
U5G A30U	0
U5A G17U	0.395
U5A C6G	0.192
U5A C6U	0.228
C4A C18A	0.13
C4A G56C	0.157
C4A G29U	0.111
C4A G29C	0.118
U5A A35G	0.559
U5A A35U	0.295

Variant	self-cleavage
U5C A71C	1.16
C4G C12A	0.071
U5A C18G	0.306
U5A C18A	0.525
U5C G51A	0.737
U5A C46G	0.232
C4A U8A	0.16
C4A U8C	0.113
C4G G42A	0.194
C4G G42U	0.121
C4A U20C	0.267
C4G A36C	0.103
C4G A36U	0.118
C4G A31C	0.176
C4G A31U	0.183
C4U G29U	0.194
C4U G29A	0.107
C4G U63C	0.112
U5G A24U	0.235
C4U A61C	0.294
C4U A61G	0.169
C4U A61U	0.0691
C4G G17C	0.121
C4G G17U	0.336

Variant	self-cleavage
U5C A30C	0.154
U5C A30G	0.111
C4A A47C	0.205
C4A A47G	0.188
U5C A45C	0.0908
C4G U52G	0.184
C4G U52A	0.143
C4A U9G	0.151
C4A U9C	0.163
C4U A22C	0.172
C4G G32U	0.149
C4G G32C	0.115
C4G A24G	0.256
C4G A24C	0.177
C4G A24U	0.183
U5A A23G	0.377
C4G C46G	0.122
C4A U33C	0.132
C4A U33A	0.174
U5C U70A	0.594
U5C U70G	0.664
U5G A22U	0.176
U5G A22C	0.24
C4U C38U	0.234

Variant	self-cleavage
C4G A44G	0.0493
C4G A44U	0.164
U5A A44C	0.156
U5A A44G	0.121
C4A A41C	0.322
C4A A41U	0.504
U5G A44C	0.147
C4G A30U	0.175
C4G A30C	0.178
U5C U67G	0.245
C4G G15A	0.216
C4G G15C	0.212
U5C A59G	0.222
U5C A59U	0.0936
U5A G15C	0.33
U5C A35G	0.358
U5A G42C	0.106
U5A G42U	0.275
U5C G56C	0.159
U5C C37G	0.205
U5C G57C	0.0878
U5C G57A	0.0835
C4A G19U	0.221
U5A A26U	0.67

Variant	self-cleavage
C4U U62A	0.143
U5G A23U	0.192
U5G A23C	0.431
U5A U70A	0.286
U5A U70C	0.543
C4U A59U	0.113
C4U A59G	0.163
C4A C50U	0.13
C4G U20C	0.135
C4G C66A	0.277
C4G C66U	0.178
C4U U55G	0.157
U5A U53G	0.278
U5A A45C	0.161
C4U A49G	0.0694
C4G G40A	0.114
U5C A36U	0.348
C4U A47C	0.0918
C4U A47U	0.115
U5C U9A	0.418
U5C U9G	0.187
C4U A35C	0.418
C4U G25A	0.129
U5A U67C	0.111

Variant	self-cleavage
U5A U67A	0.0927
U5A G29C	0.153
C4U C48U	0.142
U5C U60C	0.549
U5C U60G	0.236
C4A A45C	0.167
U5C G15A	0.675
U5C A39C	0.51
C4U U5G	0.343
C4U U5C	0.109
U5A G56U	0.206
U5A G56C	0.0893
C4A A30U	0.228
C4A G51U	0.148
C4A G51A	0.232
C4G C37A	0.209
C4G C37G	0.168
U5C G69U	0.186
U5C G34C	1
U5C G34A	0.78
U5C G34U	1.45
U5C C50A	0.0675
U5C A22U	0.732
U5C A22C	0.586

Variant	self-cleavage
C4G G69A	0.132
C4G G69U	0.118
C4U U7G	0.235
C4G A41G	0.219
C4U A26C	0.144
C4A A64C	0.156
C4A A64U	0.0608
U5C C16U	0.71
U5C C16G	0.516
C4G U60C	0.224
C4U U8A	0.2
C4A C6A	0.166
C4G G13A	0.193
C4U G42C	0.253
C4A A36G	0.198
C4G A35G	0.153
U5A G68A	0.146
U5A G68C	0.11
U5A A39C	0.139
C4U C16A	0.41
C4G A64U	0.142
C4G A64G	0.124
U5A G34U	1.07
U5A G34A	0.435

Variant	self-cleavage
U5A G34C	1.27
C4A A31C	0.131
C4A U7A	0.175
C4A U7C	0.147
C4G C50A	0.147
U5A C50G	0.0755
U5A C50A	0.161
C4U U14G	0.418
C4U U14C	0.184
C4U U14A	0.376
C4U A71U	0.282
C4A G69C	0.156
U5A A64G	0.154
C4U G32U	0.0825
C4U G32C	0.114
C4U U60G	0.299
C4G A47G	0.168
U5A A31G	0.212
U5A A31C	0.156
U5A G19C	0.245
U5A G19U	0.312
U5C U8G	0.429
U5G A36G	0.166
U5A U14G	0.233

Variant	self-cleavage
C4U C10G	0.264
U5C U62A	0.118
U5C U52A	0.706
U5A C38U	0.0767
C4U A43U	0.202
C4G C16G	0.201
U5C U63C	0.286
U5C A24U	0.229
U5C G19U	0.565
U5C G19C	0.435
C4G A26U	0.204
C4A C12U	0.319
U5A U52A	0.646
C4A A35G	0.33
C4A A35U	0.188
C4G C6G	0.17
C4G C6U	0.0456
C4G A43G	0.121
C4U A45U	0.0517
U5C C6U	0.318
U5G A35U	0.156
U5A A11U	0.196

Source: the RNAGym collection of RNA variant scans (doi:10.7554/elife.80360)
